According to patent publication US20170010270A1 (Chugai, published 2017):

T1: GPC3 peptide, amino acid position 401-430 (SEQ ID NO: 21) (human)
T1 construct: synthetic 30-residue peptide of GPC3
T1 peptide: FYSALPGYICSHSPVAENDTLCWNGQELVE

T2: GPC3 peptide, amino acid position 81-110 (SEQ ID NO: 5) (human)
T2 construct: synthetic 30-residue peptide of GPC3
T2 peptide: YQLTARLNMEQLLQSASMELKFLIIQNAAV

T3: GPC3 peptide, amino acid position 21-50 (SEQ ID NO: 2) (human)
T3 construct: synthetic 30-residue peptide of GPC3
T3 peptide: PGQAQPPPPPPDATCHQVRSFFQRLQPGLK

T4: GPC3 peptide, amino acid position 101-130 (SEQ ID NO: 6) (human)
T4 construct: synthetic 30-residue peptide of GPC3
T4 peptide: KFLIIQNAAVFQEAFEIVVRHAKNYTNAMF

T5: GPC3 peptide, amino acid position 261-290 (SEQ ID NO: 14) (human)
T5 construct: synthetic 30-residue peptide of GPC3
T5 peptide: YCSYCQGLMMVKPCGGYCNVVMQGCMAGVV

T6: GPC3 peptide, amino acid position 1-30 (SEQ ID NO: 1) (human)
T6 construct: synthetic 30-residue peptide of GPC3
T6 peptide: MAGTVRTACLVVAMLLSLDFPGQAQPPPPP


Tests used:
[1] = target: T7, AW2, C-terminally His-tagged recombinant product of positions 1 to 196 of GPC3 (human, UniProt P51654 25-196); assay: Western blot of CHO cell pellets, reducing
T7 construct: Expressed in CHO cells; cell pellets used in reducing Western blot; Construct is stated from position 1; also called AW2 (1-196); not shown: C-terminal His tag

[2] = target: T8, AW5, C-terminally His-tagged recombinant product of positions 1 to 357 of GPC3 (human, UniProt P51654 25-357); assay: Western blot of CHO cell pellets, reducing
T8 construct: Expressed in CHO cells; cell pellets used in reducing Western blot; Construct is stated from position 1; also called AW5 (1-357); not shown: C-terminal His tag

[3] = target: T9, AW3, C-terminally His-tagged recombinant product of positions 1 to 218 of GPC3 (human, UniProt P51654 25-218); assay: Western blot of CHO cell pellets, reducing
T9 construct: Expressed in CHO cells; cell pellets used in reducing Western blot; Construct is stated from position 1; not shown: C-terminal His tag

[4] = target: T1, GPC3 peptide, amino acid position …; assay: ELISA on immobilised peptide
Experimental: (§1) In order to identify more detailed epitopes for the antibodies, the amino acid sequence of GPC3 was divided into peptides of 30 residues containing 10-residue overlaps, and the corresponding peptides were synthesized (SEQ ID NOs: 1 to 29 in Table 2). Each peptide thus synthesized was dissolved at a concentration of 1 mg/mL in dimethyl sulfoxide and then diluted to 1 μg/mL with PBS. The diluted peptide solution was added at 70 μL/well to a 96-well plate and immobilized thereon at room temperature for 1 hour. After removal of unimmobilized peptides, 20% Blocking-one (Nacalai Tesque, Inc.) was added thereto as a blocking buffer solution at 200 μL/well, and the plate was blocked overnight. After removal of the blocking buffer solution, each well was washed with TBS-T three times, and each antibody diluted to 2 μg/mL with a blocking buffer was then added thereto at 70 μL/well. One hour later, the antibody was removed, and each well was washed three times by the addition of TBS-T at 200 μL/well. An HRP-bound anti-mouse antibody was added at 70 μL/well to each well and reacted therewith for 1 hour. After removal of the antibody, each well was washed with 200 μL/well of TBS-T three times, and a chromogenic reagent ABTS Peroxidase Substrate System (1 component, KPL, Kirkegaard & Perry Laboratories, Inc.) was then added thereto at 70 μL/well and reacted at room temperature for […] to develop color. The reaction was terminated by the addition of 1% SDS at 70 μL/well, and the absorbance at 405 nm was measured using a plate reader.

[5] = target: T2, GPC3 peptide, amino acid position …; assay: ELISA on immobilised peptide
Experimental: as §1

[6] = target: T3, GPC3 peptide, amino acid position 21-50 …; assay: ELISA on immobilised peptide
Experimental: as §1

[7] = target: T4, GPC3 peptide, amino acid position …; assay: ELISA on immobilised peptide
Experimental: as §1

[8] = target: T5, GPC3 peptide, amino acid position …; assay: ELISA on immobilised peptide
Experimental: as §1

[9] = target: T6, GPC3 peptide, amino acid position 1-30 …; assay: ELISA on immobilised peptide
Experimental: as §1

T9 sequence (P51654 25-218): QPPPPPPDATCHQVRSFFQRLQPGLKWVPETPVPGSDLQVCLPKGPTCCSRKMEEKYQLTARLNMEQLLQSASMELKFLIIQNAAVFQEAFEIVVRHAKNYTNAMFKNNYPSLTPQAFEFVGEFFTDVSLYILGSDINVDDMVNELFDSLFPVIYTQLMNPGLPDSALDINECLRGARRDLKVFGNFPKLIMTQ
T7 sequence (P51654 25-196): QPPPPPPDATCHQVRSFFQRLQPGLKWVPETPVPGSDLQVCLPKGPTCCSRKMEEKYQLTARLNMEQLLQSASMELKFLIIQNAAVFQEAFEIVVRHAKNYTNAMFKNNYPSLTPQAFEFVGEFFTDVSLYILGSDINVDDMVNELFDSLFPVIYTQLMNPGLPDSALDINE
T8 sequence (P51654 25-357): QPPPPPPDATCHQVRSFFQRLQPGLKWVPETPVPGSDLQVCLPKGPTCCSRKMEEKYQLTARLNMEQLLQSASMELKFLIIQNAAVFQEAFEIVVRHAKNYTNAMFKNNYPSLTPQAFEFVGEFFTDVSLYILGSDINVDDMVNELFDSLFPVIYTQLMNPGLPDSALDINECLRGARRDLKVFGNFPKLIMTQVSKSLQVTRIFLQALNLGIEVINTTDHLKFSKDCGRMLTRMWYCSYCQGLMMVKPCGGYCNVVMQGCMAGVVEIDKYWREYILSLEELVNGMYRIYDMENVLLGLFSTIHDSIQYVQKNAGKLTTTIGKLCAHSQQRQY

Binder | binding result [1] | binding result [2] | binding result [3] | binding result [4] | binding result [5] | binding result [6] | binding result [7] | binding result [8] | binding result [9]
GT165 antibody (antibody, IgG1, V domains shown) VH: QVQLQQSGAELVGPGASVKISCKAFGYTFTNHHINWVKQRPGQGLDWIGYINPYNDYTNYNQKFKGKATLTVDKSSSTAYMELSSLTSEDSAVYYCARSDPAWFAYWGQGTLVTVSA VL: DIQMTQSPSSLSASLGGKVTITCKASQDINKNIAWYQHKPGKGPRLLIWYTYTLQPGIPSRFSGSGSGRDYSFSISNLEPEDIATYYCLQYDNLPFTFGTGTKLEIKR | no binding | no binding | no binding | no binding (tested: 2 µg/mL) | no binding (tested: 2 µg/mL) | no binding (tested: 2 µg/mL) | no binding (tested: 2 µg/mL) | no binding (tested: 2 µg/mL) | no binding (tested: 2 µg/mL)
GT607 antibody (antibody, IgG1, V domains shown) VH: EVQLVESGGDVVRPGGSLKLSCAASGFTFSSYGMSWVRQLPDKRLEWVASVGNGGSYRYYPENLKGRFTISRDNTKNTLYLQISGLKSEDTAIYYCARRGAFPYFDVWGAGTTVTVSS VL: QIVLTQSPAIMSASPGEKVTLACSASSSVTYMHWYQQKSGTSPKRWIYETSKLASGVPPRFSGSGSGTSYSLTISTMEAEDAATYYCQQWSSNPLTFGAGTKLELKR | no binding |  | no binding | no binding (tested: 2 µg/mL) | no binding (tested: 2 µg/mL) | no binding (tested: 2 µg/mL) | no binding (tested: 2 µg/mL) | no binding (tested: 2 µg/mL) | no binding (tested: 2 µg/mL)
GT114 antibody (antibody, IgG1, V domains shown) VH: DVQLQESGPGLVKPSQSLSLTCTVTGYSITSDSAWNWIRQFPGNKLEWMAYIMYSGITSYNPSLKSRISITRDTAKNQFFLQLNSVTTEDSATYYCSRGYWYFDVWGAGTTVTVSS VL: QIVLTQSPAIMSASLGEEITLTCSASSSVSYMHWYQQKSGTSPKLLIYSTSILASGVPSRFSGSGSGTFYSLTISSVEAEDAADYYCLQWITYRTFGGGTKLEIKR | no binding |  | no binding | no binding (tested: 2 µg/mL) | no binding (tested: 2 µg/mL) | no binding (tested: 2 µg/mL) | no binding (tested: 2 µg/mL) | no binding (tested: 2 µg/mL) | no binding (tested: 2 µg/mL)
